Reference: patent US7176293B1, “Compositions and methods to enhance sensitivity of cancer cells to mitotic stress” (The Wistar Institute of Anatomy and Biology, priority 1999, dated 2007)

Columns and labels:
Format in all cases: cell-based, human
[1] = system: DLD1 cells; assay: Entry into metaphase of synchronized DLD1-neo and DLD1-chfr cells under mitotic stress; settings: synchronized DLD1-chfr vs DLD1-neo; drug added 12 hours after release from the G1-S block
Protocol: All cancer cells were grown in DMEM supplemented with glutamine, penicillin, streptomycin and 10% fetal bovine serum (Life Sciences). Normal human epidermal keratinocytes and osteoblasts were grown in KGM2 and OGM media, respectively (Clonetics). The cells were examined either non-synchronized or synchronized. For synchronization, the cells were treated with 2 mM thymidine for 16 hours, then with 0.25 mM thymidine/deoxycytidine for 9 hours, and then with 0.5 μg/ml aphidicolin for 20–24 hours. The cells were washed three times with PBS between each step [Janss et al., 1998, Exp. Cell Res., 243:29–38]. To induce mitotic stress, synchronized or non-synchronized cells were exposed to 0.5 μg/ml nocodazole, 5 μM of the TAXOL™ drug or 0.5 μg/ml colcemid. Cells were grown on 8-well culture slides coated with human fibronectin (Becton Dickinson) and were examined as either non-synchronized or synchronized cells. […] The slides were sealed with coverslips using Fluoromount-G (Upstate Biotechnology) and visualized with a fluorescence microscope (Leica). […] Progression through the cell cycle was monitored by measuring the mitotic index and by flow cytometric analysis of the DNA content of the cells.

[2] = system: SAOS2 cells; assay: Mitotic index of transiently-transfected SAOS2 cells exposed to the TAXOL drug; settings: SAOS2, TAXOL drug added 36 hours after transfection; 12, 14 and 16 hour timepoints
Protocol: (§1) Stable transfectants were prepared by transfecting DLD1 or U20S cells with 5 μg pSV2-HAchfr or pSV2-HAchfr-M580, or 5 μg pSV2 vector without insert and 1 μg pSV7neo plasmid [Wieczorek et al., supra] using Fugene-6 transfection reagent (Roche). Stably transfected cells were selected with G418. For transient expression, DLD1 or U20S cells were transfected with 5 μg pSV2-HAchfr or pSV2-HAchfrM580 or pSV2 plasmid without insert and 2 μg of a plasmid expressing green fluorescent protein using Fugene-6. SAOS2 cells were transfected as described above, except that the plasmids expressing Chfr were cotransfected with a plasmid expressing green fluorescent protein (GFP).
(§2) Cells were grown on 8-well culture slides coated with human fibronectin (Becton Dickinson) and were examined as either non-synchronized or synchronized cells. […] The slides were sealed with coverslips using Fluoromount-G (Upstate Biotechnology) and visualized with a fluorescence microscope (Leica). […]
Chfr-ΔFHA, a Chfr protein with deletion of residues 2–142 encompassing the FHA domain, was identified as a dominant negative mutant by studying its function in DLD 1 cells. […] 36 hours later, mitotic stress was induced by exposure to the TAXOL™ drug and the mitotic index was determined 8 to 16 hours late. Protein levels were determined by immunoblotting with an antibody that recognizes the N-terminal HA tag of the expressed Chfr proteins. […]

[3] = system: DLD1 cells; assay: Mitotic index of unsynchronized DLD1 cells stably expressing Chfr or Chfr-A325, exposed to nocodazole; settings: stably transfected unsynchronized DLD1 cells
From the text: To determine whether ubiquitin-protein ligase activity is required for checkpoint function, the Chfr mutant that substitutes Cys325 of the ring finger with Ala was stably-expressed in DLD1 cells. These cells were then exposed to mitotic stress and examined for entry into metaphase. The mitotic index of unsynchronized DLD1 cells exposed to nocodazole is high, indicating the absence of a checkpoint that would delay entry into metaphase in response to mitotic stress.

[4] = system: DLD1 and U20S cells; assay: Mitotic index of stably transfected DLD1 and U20S cells in response to nocodazole
Protocol: as §1, §2
To determine whether Chfr accounted for the different response, DLD1 and U20S cells were prepared to stably express HA-tagged wild-type Chfr or Chfr with the […] substitution (M580) or just the neo selectable marker. […] Furthermore, the different effects of wild-type Chfr and Chfr-M580 could not be attributed to differences in protein expression, as determined by immunoblotting. […]

B1: wild-type Chfr: 664 amino acid human checkpoint protein with FHA and ring finger domains, SEQ ID NO: 2; HA-tagged when expressed in cells (protein, listed as Homo sapiens)
chain: MERPEEGKQSPPPQPWGRLLRLGAEEGEPHVLLRKREWTIGRRRGCDLSFPSNKLVSGDHCRIVVDEKSGQVTLEDTSTSGTVINKLKVVKKQTCPLQTGDVIYLVYRKNEPEHNVAYLYESLSEKQGMTQESFEANKENVFHGTKDTSGAGAGRGADPRVPPSSPATQVCFEEPQPSTSTSDLFPTASASSTEPSPAGRERSSSCGSGGGGISPKGSGPSVASDEVSSFASALPDRKTASFSSLEPQDQEDLEPVKKKMRGDGDLDLNGQLLVAQPRRNAQTVHEDVRAAAGKPDKMEETLTCIICQDLLHDCVSLQPCMHTFCAACYSGWMERSSLCPTCRCPVERICKNHILNNLVEAYLIQHPDKSRSEEDVQSMDARNKITQDMLQPKVRRSFSDEEGSSEDLLELSDVDSESSDISQPYVVCRQCPEYRRQAAQPPHCPAPEGEPGAPQALGDAPSTSVSLTTAVQDYVCPLQGSHALCTCCFQPMPDRRAEREQDPRVAPQQCAVCLQPFCHLYWGCTRTGCYGCLAPFCELNLGDKCLDGVLNNNSYESDILKNYLATRGLTWKNMLTESLVALQRGVFLLSDYRVTGDTVLCYCCGLRSFRELTYQYRQNIPASELPVAVTSRPDCYWGRNCRTQVKAHHAMKFNHICEQTRFKN
modifications: HA tag when expressed
notes: HA-tagged when expressed in cells
Question: For B1, which “entry into metaphase in response to mitotic stress” value [1] is on record?
Answer: delays entry into metaphase

Question: What about the “effect on mitotic index compared to cells transfected with empty vector” value [2] of the same molecule?
Answer: no effect

Question: What about the “mitotic index after exposure to nocodazole” value [3] of the same molecule?
Answer: low mitotic index

Question: What about the “mitotic index in response to nocodazole” value [4] of the same molecule?
Answer: low mitotic index
